Reference: publication PMC10243133 (Proceedings of the National Academy of Sciences of the …, 2023)

Assays:
[1] = biological target: GLP-1R endogenously expressed in the rat pancreatic INS-1E β-cell line (rat (endogenous in INS-1E)) (UniProt P32301)
mutant GLP-1R = conditions: cited from earlier work

Sequence of GLP-1R endogenously expressed in the rat pancreatic INS-1E β-cell line (rat (endogenous in INS-1E)) (P32301 22-463): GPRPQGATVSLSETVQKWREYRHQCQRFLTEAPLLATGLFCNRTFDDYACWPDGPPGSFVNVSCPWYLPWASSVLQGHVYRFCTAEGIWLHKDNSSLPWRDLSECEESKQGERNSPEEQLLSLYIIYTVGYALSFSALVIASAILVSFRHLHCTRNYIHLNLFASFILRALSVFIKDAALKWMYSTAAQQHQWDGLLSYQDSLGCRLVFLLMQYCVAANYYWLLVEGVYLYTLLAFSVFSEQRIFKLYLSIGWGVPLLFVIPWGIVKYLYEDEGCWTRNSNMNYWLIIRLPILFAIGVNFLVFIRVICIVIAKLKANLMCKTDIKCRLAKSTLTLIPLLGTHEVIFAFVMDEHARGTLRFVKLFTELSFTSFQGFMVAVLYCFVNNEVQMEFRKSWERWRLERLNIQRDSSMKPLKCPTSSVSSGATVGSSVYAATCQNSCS

Compound	EC50 of peptide activity in rat INS-1E cells with 3 μM compound 3-20 (Emax 63%) [1] [µM]	EC50 of peptide activity in rat INS-1E cells with 3 μM compound 3-24 (Emax 60%) [1] [µM]	allosteric activity in GLP-1R binding site mutants (mutant GLP-1R)
GLP-1(9-36) (peptide)	0.115	0.1	–
COc1ccc(Cl)c([C@@H](C)n2cnc3ccc(-c4ccccc4[C@H]4CCCCN4)cc32)c1Cl [LSN3160440]	–	–	only abolished in a triple mutant
